# Results published in the DeepSol protein solubility set.
# Experiment: soluble on expression in E. coli; label from the status in PepcDB or PDB records
row,Sequence,soluble on expression in E. coli
1,MASEHHEALNLYAVRVARGEGVKQDFARAASLFRRADRCGFNCEPVYDDMVNDFRDKAFGMELVSSKRAFLKALRPETAEARCTVGEAFIGQGDADSLRTGRELLTSAATLGSGKAMYLLGVLCRDGKGVAANAERAFMWFSLAASCGFAKAESERVNAEGKLDDAGRTRAMQLAARWRRQYLAPVCLEHHHHHH,not soluble
2,MASIDRFQVMQEPELKILEHWFENEDTRRRMDGMLLLDEWYARVNKDKHDTVIMAYDGQLPAGMVVIEFGEERTYIGLIVNPLYRLKGYGKQILQKLMTEPDFTSVREWVACIEEDNRISLACFQAAGFTLEDTEPDEDGFLTLILRNLEHHHHHH,not soluble
3,MASLYLGLGFLVSMHSTKPEKADIIVILGGDDGLRVSKGGDLYKAGYAKHVLLTGIDSRYYRPNHPNWRERKLMARGVPRKHIIVDTWSETSWEEAENTSDLMDKNGWKSALVVSDPPHMLRLNKTWKKAFAGTNKRFRLVATEPSWWNPLLWWRNPISYRFVINELKKNIYYLVTYYLEHHHHHH,not soluble
4,MASMTGGQQMGRGSMAGVLPAHGTQHGIRLPLRSGLGGAPLGLRLPRETDEEPEEPGKKGSFVEMVDNLRGKSGQGYYVEMTVGSPPQTLNILVDTGSSNFAVGAAPHPFLHRYYQRQLSSTYRDLRKGVYVPYTQGKWEGELGTDLVSIPHGPNVTVRANIAAITESDKFFINGSNWEGILGLAYAEIARPDDSLEPFFDSLVKQTHVPNLFSLQLCGAGFPLNQSEVLASVGGSMIIGGIDHSLYTGSLWYTPIRREWYYEVIIVRVEINGQDLKMDCKEYNYDKSIVDSGTTNLRLPKKVFEAAVKSIKAASSTEKFPDGFWLGEQLVCWQAGTTPWNIFPVISLYLMGEVTNQSFRITILPQQYLRPVEDVATSQDDCYKFAISQSSTGTVMGAVIMEGFYVVFDRARKRIGFAVSACHVHDEFRTAAVEGPFVTLDMEDCGYNIPQTDES,soluble
5,MASSIDPLTRLHGILSSYLSEVLGVDRSVVERLLAPPPRKEYGDLGFPLMRFARSSNASADSIVESLRGKLWERGITWASPTLEAGYLNIVFDVEKLGDEVFRLLASGWRPSTARTSRPETIVVEHTSANPIHPLHLGHARNSSLGDALARLLEARGHRVNRRFYVDDVGRQAVVASLGFKLSGVTPRELASRMGVKVDHAVGWVYAVTHNALETVTARKRGDTSKVDEALSTLARLKERGDREVFDRILEAVGSLDDPEGLVSEMMRKYERGEEPEKSLIRGVVSAVLEGFRETLGRFGVDFDDWDWESDLLWSGLVNKIIEEARRSPFLTTHKDAIALDIPRIVREVLARDPEAASTIKLPRSLEIPPLILVRSDGTTLYTTRDLAYSVYKFRVTGADRVINVIGADQRLPQLQIRLALLGLGYRREALNMMHYDYEIVSLPGRRMSSRRGEYVTLDELLEMAKARSVREVESRNPGADRDWIESTAEKIAVGAVRFALVRPGRLKPITLDVERILDLKENTAPYLQYTYARASSILEKHGEIDYLKAHPASLEEGSRRELFVEALRFPLVSAKAADDLAPEDLASYLLRLADMFNSWYQKDSVIHEEWEGARHAKAALVLLVKSVIGEGLRLLGVEPLEKM,soluble
6,MASSVVFAATGSLSVPPLKSRRFYVNSSLDSDVSDMSVNAPKGLFPPEPVPYKGPKLKVAIIGAGLAGMSTAVELLDQGHEVDIYDSRTFIGGKVGSFVDRRGNHIEMGLHVFFGCYNNLFRLMKKVGAEKNLLVKDHTHTFINKDGTIGELDFRFPVGAPIHGIRAFLVTNQLKPYDKLRNSLALALSPVVKALVDPDGAMRDIRNLDSISFSDWFLSKGGTRASIQRMWDPVAYALGFIDCDNMSARCMLTIFSLFATKTEASLLRMLKGSPDVYLSGPIKQYITDRGGRIHLRWGCREILYDKSADGETYVTGLAISKATNKKIVKADVYVAACDVPGIKRLLPKEWRESRFFNDIYELEGVPVVTVQLRYNGWVTELQDIELARQLKRAVGLDNLLYTPDADFSCFADLALASPADYYIEGQGTLLQCVLTPGDPYMRMPNDKIIEKVAMQVTELFPSSRGLEVTWSSVVKIAQSLYREAPGKDPFRPDQKTPIKNFFLAGSYTKQDYIDSMEGATLSGRQASSYICDAGEELAELNKKLSSSATAVPDELSLV,not soluble
7,MASTRPDNVLVWMASRGSYVESMPGTILRIKNASKFGENLYGFKDQPGELVEVTWDAMFKLRPTLVEVDFGRNPCDELVKVIEKNYNNEQISHFFEKVKALSLHMTDITSESLLKLMDKFTLLAAFSFSETKFSTPEWATILKRLSELNLRGIDLSDNILSEVQQHIDVSLMKLSGNPGVDVNEFKKGIEFVTVKVLAVQELKFLGETDAEQLLEVLPQSFPRLETLIWDWNVVDPELNFDERTKKVLDQLLFVNKQLNLGSLAVVAYTPNPETKTAIESVARTLKGSIKDVQLHQFATKGLSDGMANFSLIVAGNNEKAMKELMDMYMVDRSTMPPMGKLLRLCEEDIVPIYPAITMDFGGFNKNRIRQLYTESPTD,not soluble
8,MASWSHPQFEKGASTSLYKKAGRMSKFTWKELIQLGSPSKAYESSLACIAHIDMNAFFAQVEQMRCGLSKEDPVVCVQWNSIIAVSYAARKYGISRMDTIQEALKKCSNLIPIHTAVFKKGEDFWQYHDGCGSWVQDPAKQISVEDHKVSLEPYRRESRKALKIFKSACDLVERASIDEVFLDLGRICFNMLMFDNEYELTGDLKLKDALSNIREAFIGGNYDINSHLPLIPEKIKSLKFEGDVFNPEGRDLITDWDDVILALGSQVCKGIRDSIKDILGYTTSCGLSSTKNVCKLASNYKKPDAQTIVKNDCLLDFLDCGKFEITSFWTLGGVLGKELIDVLDLPHENSIKHIRETWPDNAGQLKEFLDAKVKQSDYDRSTSNIDPLKTADLAEKLFKLSRGRYGLPLSSRPVVKSMMSNKNLRGKSCNSIVDCISWLEVFCAELTSRIQDLEQEYNKIVIPRTVSISLKTKSYEVYRKSGPVAYKGINFQSHELLKVGIKFVTDLDIKGKNKSYYPLTKLSMTITNFDIIDLQKTVVDMFGNQVHTFKSSAG,soluble
9,MATAFTHSGKFHADDVFSAALLLYLNPEITITRGNRVPEDFDGIVFDIGRGRYDHHQKDSRVRENGIAYAAFGLLWEELGSEILGEELAQKFDEAFVQPLDNNDNTGEKNELASLIGNFNPTWDAEGSNDEAFFQAVSVAGMILENKFDRYRGNERADKRVEEIYERHMQAFHDREKHSEDAKILILPEFVPCQKFLSETPVAFVIFPSNRGGYCIQPQKKEYSMNYKCSFPSEWLGLENEELQEVTGLKTAGFCHKGGFLMTTGELADAVQACKISMEQFREKPVIVSFGGDTEYDELLHQIPKLQAAEIIHIDIQPLPEVEIQGIYAEVSMEKQEWKARIKEQVKQILKYKPEAVFVGENLFVAYPIVHALRKKHIPVLVPAEKDGQKLLIRIPSGSLEHHHHHH,soluble
10,MATAVELALLKQPYFDLNALCKTVFVTYKAGPGLKKIVTVQAQYVDICNKPNVRGTVVSLPGSPGSHNDIKYMRDSFEKHNIRLICVNWPGSEFVTGGMNDTYTNAERNSYAKALMEKLELKKVEKLILLGHSRGGESALQLACTLSDDRSWPLIGAVMLNSPGFVVHRGISIRMGTINTVSFLVKLRWKIVDCILFPVLDWFYNDFVGLRVSDGKVCAAAMLPMQTFAFEEQRASIDEMKKKPWIRMFYAYGSKDFLVDESDSEELAMHFGGDHYIIHSKKESEETIPKIWNSYERGQSYVTANFTEEGHYLHKTYPEFLIQIFGGIFDVKTEKS,not soluble
11,MATCLVEFAKSPPVFSPGEKVTGNVKMTIPDDEFKARKVRMEMIGKAYTYWEGNVRNNHTKIKNGDIARVRHNCADHKGKIVYCRFETIVWKSDGAKNDMPSGPHIFPFSFQLPHWAPPSFEGDLGFIRYFIKVEIDRPWKFDDKFITCLTVLPNIDLRLIPNSQVPSKKHVCEEFGAVLWKNGLVRMELRLPKQGFVCGENIPVTMIVDNKTSKSFKKISLRLVQRVTYTGFRDGFVNSHSQPCIGNEKEKITYATRLNAQTRVEERQISETNIDIKIDKNEKQEVEKPIPLPPLPPSTKTCEIIDVEYFLKVKMSTSGALKSAVKLELAFIIGTMPIDPERKYEYKKSVFGFAATSLKNRDVQKFAPLYPVFKFDE,not soluble
12,MATIRDVAKRAGVSVATVSRVLNQNGYVNEETERRVRQAMKELNYKPNEVARALFKKTSKTVGLIVPDITNPFFPELVRAVEDVMNIYDYTVILCNSDEKVEKEREYIEVLKQKYVDGVILTTNQFAPEEVEEWDVPIVVLDRPLHERYPSVVADNYEGARLATRHLYEVGCRRIAHIQGPNHVVNAMERFRGYQDEMRALGLGDRQLVIQGNYQLKQAKEAVMAALAEHDMDGIFAGNDAMAVGALKAVQQCGLRVPDDIAIIGYDGIPLTEMTTPELSTVSQPIYEMGAMAARILIKQIEGKPLEKLHYQLPVQLVVRQSTSRRGLT,soluble
13,MATIRKADYYYGALLSALVNGGLAPALFEKENDNRQIYEVTTNKASYIMYTKYNTNPSGSKDFTWSFVFSDHEIAEINKIYLEHSKEKEIMFAFVCAQKQPSDSNQVIAIVRWNEFLECVDLQRQQVRGTPRLSIKAVKGSPKLRLYGSKRADVLDGKDHTIKIERNRLNSL,not soluble
14,MATKHDQILKHIEDLPIGDRISVRSIAKSLSVSEGTAYRAIKDAENIGLVSTIQRVGTIRIERKLKKHIEKLTFGEVVRIIEGDVLGGSSGLDKVLNKFVIGAMTETAMTRYITPGSLMIVGNRQGVQKLALENGAAVLITGGFETSEEIAQLADRLGMPVLRTTYDTFTVATMINRALSDQLIKKDILLVSDIYTALEKTNYLLTTQTIADYQALSESTHHSRFPVVNKKLRLVGIVTAKDVIGKSEHLTVDKVMTKDPNVVKKMMSVASVSHQMIWDGLEVMPVVEDDLALVGIVSRQDVMKAMQLVQRQPQIADTISDQISGEVMPVEENGKETTRFRFSVAPQMVNSVGTISFGVLSEIISNVTQRTMLMNQKRNVLIEQVNLHYLRLIQLESELDIRPRILEIGRRSAKLDIEVYLENVIVAKAIVVCQVMERT,not soluble
15,MATLFIADLHLQTEEPAITAGFLRFLQGEARQADALYILGDLFEAWIGDDDPNPLHQQIASAIKAVVDAGVPCYFIHGNRDFLVGQRFARQSGMILLAEEERLDLYGREVLIMHGDTLCTDDQGYLAFRAKVHTPWIQRLFLALPLFIRHRIAARMRADSKAANSSKSMEIMDVNPQAVVDAMERHHVQWLIHGHTHRPAVHELQANGQPAWRVVLGAWHSEGSMVKVTPDDVELIHFPF,not soluble
16,MATPALLPGVDLAAFAAALAARLRDAGIPVSASGQASLVQALQQLVPRTPAALYWGARLTLVSRVDELATFDAVFASLFGVFGSAEPDGANRPPPPIAGPRTPVAGVGHRAKRRSCAAQAQNLPWDTRSLTMASAGQGGPSRTLPDVLPSRIVARADEPFDQFDPDDLRLLGAWLEATMARWPRRRSMRFESSPHGKRIDLRATMNASRSTGWESVLLARIRPRRRPRRVLLLCDVSRSMQPYAAIYLRLMRAAVLRRAGGHPEVFAFSTSLTRLTSVLSHRSAEMALHRANARVTDRYGGTFIGRSVAALLAPPHGNALRGAVVIIASDGWDSDPPDVLVHALTRVRRRAELLVWLNPRAAHPEFQPRAGSMAAALPYCDLFLPAHSLAGLHQLLLALAGAR,soluble
17,MATQINQKFGSKYKSNRKDETPMFEVRNGKSVIKNSGNHEATVNRTLDFHMTKLFQWEEQSDAIESSYVCALCHENGEKRELFGPYYATHNPIKYWPSFLAKKPTAKKPTKIELWFHGSCVLWAPNVHLHGNQLTNLDNQIDIFWSQTCIVCRKTGAAISVQNKKNTFIHYPCAKNKGYKLDEHALLCNS,soluble
